Data reported in patent US20090304746A1.
Like-named read-outs stand apart in the source and are kept apart here.

Tests used:
HLA-A*0301 (human) [1] = experiment: competition with 125I-labeled standard peptide on purified HLA, gel filtration
HLA-A*1101 (human) [2] = experiment: as above
HLA-A*3101 (human) [3] = experiment: as above
HLA-A*3301 (human) [4] = experiment: as above
HLA-A*6801 (human) [5] = experiment: as above
HLA-A*1101 (human) [6] = molecular target: HLA-A*1101 (human)
HLA-A*2401 (human) = experiment: competition with 125I-labelled standard peptide for purified HLA, gel filtration
HLA-A*3301 (human) [7] = molecular target: HLA-A*3301 (human)
HLA-A*0301 (human) [8] = experiment: competition with 125I-labelled standard peptide on purified HLA, gel filtration
HLA-A*3101 (human) [9] = experiment: as above
HLA-A*6801 (human) [10] = experiment: as above

## VAYQATVCAR (modifications not checked) [HCV peptide … (HCV polyprotein position 1592)]
HLA-A*0301 (human) [1]
  binding affinity ratio (IC50 of standard peptide / IC50 of test peptide): 0.0005
HLA-A*1101 (human) [2]
  binding affinity ratio (IC50 of standard peptide / IC50 of test peptide): 0.0036
HLA-A*3101 (human) [3]
  binding affinity ratio (IC50 of standard peptide / IC50 of test peptide): 0.068
HLA-A*3301 (human) [4]
  binding affinity ratio (IC50 of standard peptide / IC50 of test peptide): 0.072
HLA-A*6801 (human) [5]
  binding affinity ratio (IC50 of standard peptide / IC50 of test peptide): 0.028

## LSNSLLRHH (modifications not checked)
HLA-A*1101 (human) [6]
  binding affinity ratio (IC50 of standard peptide / IC50 of test peptide): 0.0001

## NIVDVQYLY (modifications not checked)
HLA-A*2401 (human)
  binding affinity ratio (IC50 of standard peptide / IC50 of test peptide): 0.0001

## PTGSGKSTK (modifications not checked) [HCV peptide … (polyprotein position 1236)]
HLA-A*3301 (human) [7]
  binding affinity ratio (IC50 of standard peptide / IC50 of test peptide): 0.0006
HLA-A*0301 (human) [8]
  binding affinity ratio (IC50 of standard peptide / IC50 of test peptide): 0.0002
HLA-A*3101 (human) [9]
  binding affinity ratio (IC50 of standard peptide / IC50 of test peptide): 0.0008
HLA-A*6801 (human) [10]
  binding affinity ratio (IC50 of standard peptide / IC50 of test peptide): 0.0002
